Measured values reported in patent publication US20050130232A1, “Methods of screening for compounds that modulate hormone receptor activity” (Allergan, Inc., priority 2001, published 2005).

Experiments:
[1] = system: T1, Flag-RXRα (human retinoid X receptor α fused to the Flag epitope tag)
T1 sequence: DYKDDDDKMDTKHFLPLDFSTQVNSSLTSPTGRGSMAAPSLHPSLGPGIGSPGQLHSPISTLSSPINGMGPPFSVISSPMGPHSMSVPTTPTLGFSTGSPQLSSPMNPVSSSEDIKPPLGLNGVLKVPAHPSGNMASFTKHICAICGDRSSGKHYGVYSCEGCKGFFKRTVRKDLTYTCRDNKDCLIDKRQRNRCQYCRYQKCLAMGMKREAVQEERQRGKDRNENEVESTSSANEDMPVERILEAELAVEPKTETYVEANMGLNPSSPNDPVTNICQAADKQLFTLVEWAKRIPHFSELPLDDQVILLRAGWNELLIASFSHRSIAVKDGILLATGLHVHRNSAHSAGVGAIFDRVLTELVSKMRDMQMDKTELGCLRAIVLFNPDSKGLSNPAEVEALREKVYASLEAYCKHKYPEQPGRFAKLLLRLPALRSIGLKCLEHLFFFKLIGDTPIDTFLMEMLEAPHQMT

[2] = molecular target: Flag-tagged PH-RXRα (Flag tag, pleckstrin homology domain of human insulin receptor substrate-1, human RXRα) (UniProt P35568)
[3] = system: protein kinase A activity associated with RXRα; experiment: Protein kinase A activity in anti-Flag immunoprecipitates of PH-RXRα or RXRα transfected HEK 293 cells, synthetic peptide substrate; type: cell-based, human; conditions: PH-RXRα, ligand-treated cells, inhibitor added to kinase reaction, substrate LRRASLG
Procedure: 293 cells were transfected with PH-RXRα. Sample 1: 0.1% DMSO (10 minutes). […] Sample 3: 0.1% DMSO (30 minutes).
Sample 1: 0.1% DMSO (10 minutes). […] Sample 3: 0.1% DMSO (30 minutes). […] Sample 5: No immunoprecipitate.
Sample 1: 0.1% DMSO. […] Sample 3: 0.1% DMSO with PKA inhibitor. […] Sample 5: 0.1% DMSO.
Following immunoprecipitation with anti-Flag antibody, the synthetic PKA substrate, LRRASLG (SEQ ID NO: 59), was added to the immunoprecipitate along with γ-ATP.
HEK 293 were cultured and transfected essentially as described above. Immunoprecipitates were prepared using the anti-Flag antibody, M2, as described above. Assays for protein kinase A activity were performed as follows. Immunoprecipitated complexes were resuspended in 40 μl of Kinase Assay Buffer (30 mM Tris-HCl, pH 7.4 and 10 mM MgCl2). Kinase reactions were initiated by addition of 10 μl of 500 μM synthetic peptide LRRASLG (SEQ ID NO: 59) or […] (SEQ ID NO: 60) prepared by Upstate Biotechnology (Lake Placid, N.Y.) and addition of 50 μM [γ-^32P]ATP (10 μCi) to the immune-complexes. […]
Incorporated ^32P was separated from free label by applying the reaction mixture onto P81 phosphocellulose paper and subsequently washing the paper three times with 0.75% phosphoric acid and once with acetone. Protein kinase reaction samples were analyzed in a scintillation counter to determine the amount of ^32P-incorporation.

[4] = molecular target: T2, RXRα phosphorylation by protein kinase A (Homo sapiens, UniProt P19793); experiment: Phosphorylation of immunoprecipitated RXRα by purified PKA; type: biochemical; conditions: inhibitor added to kinase reaction
T2 construct: host or cells: HEK293
T2 sequence (P19793 1-462): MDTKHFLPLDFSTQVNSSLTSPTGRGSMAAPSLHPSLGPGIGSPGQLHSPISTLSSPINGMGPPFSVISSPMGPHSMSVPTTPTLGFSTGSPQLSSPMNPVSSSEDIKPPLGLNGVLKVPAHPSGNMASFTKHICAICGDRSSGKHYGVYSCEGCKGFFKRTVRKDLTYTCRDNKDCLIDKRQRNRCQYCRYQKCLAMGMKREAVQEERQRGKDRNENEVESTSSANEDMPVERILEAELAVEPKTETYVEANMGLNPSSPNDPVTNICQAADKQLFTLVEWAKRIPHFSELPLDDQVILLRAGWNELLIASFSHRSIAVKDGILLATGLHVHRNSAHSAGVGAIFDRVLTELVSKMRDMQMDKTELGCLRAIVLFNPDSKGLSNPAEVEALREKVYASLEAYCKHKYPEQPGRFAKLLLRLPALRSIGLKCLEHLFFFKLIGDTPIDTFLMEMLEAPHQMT
Procedure: Left panel: Cells were immunoprecipitated with anti-FLAG antibody, and the immunoprecipitates analyzed by SDS-PAGE and blotting with anti-PKA antibody. Right panel: Cells were immunoprecipitated with anti-PKA antibody, and the immunoprecipitates analyzed by SDS-PAGE and blotting with anti-FLAG antibody. B. Phosphorylation of RXRα by PKA. […] PKA I and PKC I indicate inhibitors of PKA and PKC, respectively.
RXRα-containing immunoprecipitates prepared with anti-Flag antibody were incubated with purified catalytically active PKA (Upstate Biotechnology) and […]; in addition, protein kinase A inhibitor or protein kinase C inhibitor was added to some reactions as indicated. The kinase reaction products were analyzed by SDS-PAGE.

[5] = molecular target: protein kinase A activity endogenous to 3T3-L1 adipocytes; experiment: cell-based or functional assay
protein kinase A [6] = experiment: Km of synthetic peptide substrates for protein kinase A; type: biochemical
protein kinase A [7] = conditions: specific PKA substrate; cited from earlier work
[8] = molecular target: protein kinase A activity endogenous to HEK 293 cells (co-immunoprecipitated with tagged RXRα); experiment: cell-based or functional assay

Substance: protein kinase A activity endogenous to HEK 293 cells (co-immunoprecipitated with tagged RXRα)
- protein kinase A activity in anti-Flag immunoprecipitates (32P incorporation into LRRASLG) [1]: protein kinase A activity associated with RXRα lacking a fused pleckstrin homology domain was significantly enhanced in cells treated with 10^-7 M AGN194204 as compared to control vehicle
- protein kinase A activity in anti-Flag immunoprecipitates (32P incorporation into LRRASLG) [2]: significantly more protein kinase A activity was detected in immunoprecipitates from cells treated with AGN194024 ligand than in immunoprecipitates treated with control vehicle

Substance: RFARKGALRGKNV
- inhibition of RXRα-associated PKA activity [3]: not
- inhibition of RXRα phosphorylation by purified PKA [4]: not

Substance: purified catalytically active PKA (Upstate Biotechnology)
- in vitro phosphorylation of immunoprecipitated RXRα by purified PKA (SDS-PAGE) [1]: RXRα was phosphorylated, and the extent of phosphorylation was increased by addition of RXRα ligand, AGN194204

Substance: endogenous RXRα of untransfected 3T3-L1 adipocytes (from UniProt P28700 1-467) (receptor)
- PKA activity in anti-RXRα (D20) immunoprecipitates (32P incorporation into SEQ ID NO: 59), ligand-treated against vehicle-treated cells [5]: 2 fold

Substance: GRTGRRNSI [SEQ ID NO: 60, specific protein kinase A substrate]
- fold higher Vmax than kemptide (protein kinase A [6]; relative to kemptide): about 2 fold
- fold lower Km than kemptide (protein kinase A [6]; relative to kemptide (SEQ ID NO: 59)): approximately 40 fold
- Km (protein kinase A [7]): 0.11 µM

Substance: Flag-tagged PH-RXRα (Flag tag, pleckstrin homology domain of human insulin receptor substrate-1, human RXRα) (from UniProt P35568 12-115)
- protein kinase A activity in anti-FLAG immunoprecipitates (32P incorporation into …), AGN194204-treated against DMSO-treated cells [8]: > 2 fold
